{"source": "patent US8394771", "molecular_target": "ICAM-1 on HeLa cells (human) (UniProt P05362)", "assay": "cell-based or functional assay"}
{"substance": "bivalent anti-ICAM-1 monoclonal antibody RR/1 (Chemicon)", "values": [{"measurement": "EC50, protection of HeLa cells from HRV15 infection", "value": "> 10", "unit": "nM"}]}
